# Patent US20210340276A1
# Target: Human cancer-specific MUC1 peptide (PTL 1) (human)
# Test: ELISA, MUC1 peptide immobilized on 384-well plate, HRP anti-human Igκ detection, luminescence
row,EC50,Binder
1,0.3 nM,"Sample No. 6: [DOTA-NH-CH2-(1,3-phenylene)-C(═O)-Gly-Lys-Z2]p-Fab (Fab, V domains shown, may carry the labeling moiety; sites not stated; [DOTA-NH-CH2-(1,3-phenylene)-C(═O)-Gly-Lys-Z2] labeling moiety bound via 2-iminothiolane to amino group(s) of the Fab, one to three per Fab by MS, sites and chain not stated; N-terminal Gln into pyroglutamic acid in a great majority (Example 2)) VH: QVQLVQSGAEVKKPGASVKVSCKASGYTFTNYGLSWVRQAPGQGLEWMGENHPGSGIIYHNEKFRGRVTLTADRSTSTAYMELSSLRSEDTAVYYCARSSGTRGFDYWGQGTLVTVSS VL: DVVMTQTPLSLSVTPGQPASISCRSSQSIVHSNGNTYLEWYLQKPGQSPQLLIYRVSNRFSGVPDRFSGSGSGTDFTLKISRVEAEDVGVYYCFQGSHGPWTFGQGTKLEIKR"
2,0.35 nM,"Sample No. 4: [DOTA]p-Fab (Fab, V domains shown, may carry the labeling moiety; sites not stated; DOTA bound directly (via N-hydroxysulfosuccinimidyl DOTA) to amino group(s) of the Fab, one or two per Fab by MS, sites and chain not stated; N-terminal Gln into pyroglutamic acid in a great majority (Example 2)) VH: QVQLVQSGAEVKKPGASVKVSCKASGYTFTNYGLSWVRQAPGQGLEWMGENHPGSGIIYHNEKFRGRVTLTADRSTSTAYMELSSLRSEDTAVYYCARSSGTRGFDYWGQGTLVTVSS VL: DVVMTQTPLSLSVTPGQPASISCRSSQSIVHSNGNTYLEWYLQKPGQSPQLLIYRVSNRFSGVPDRFSGSGSGTDFTLKISRVEAEDVGVYYCFQGSHGPWTFGQGTKLEIKR"

# Further lines, the binder ahead of its results:
row,Binder,EC50
1,"Sample No. 1: [DFO-C(═O)-(1,3-phenylene)-C(═O)-Gly-Lys-Z2]p-Fab (Fab, V domains shown, may carry the labeling moiety; sites not stated; [DFO-C(═O)-(1,3-phenylene)-C(═O)-Gly-Lys-Z2] labeling moiety bound via 2-iminothiolane to amino group(s) of the Fab, one or two per Fab by MS, sites and chain not stated; N-terminal Gln into pyroglutamic acid in a great majority (Example 2)) VH: QVQLVQSGAEVKKPGASVKVSCKASGYTFTNYGLSWVRQAPGQGLEWMGENHPGSGIIYHNEKFRGRVTLTADRSTSTAYMELSSLRSEDTAVYYCARSSGTRGFDYWGQGTLVTVSS VL: DVVMTQTPLSLSVTPGQPASISCRSSQSIVHSNGNTYLEWYLQKPGQSPQLLIYRVSNRFSGVPDRFSGSGSGTDFTLKISRVEAEDVGVYYCFQGSHGPWTFGQGTKLEIKR",0.29 nM
2,"Sample No. 2: [DFO-C(═O)-CH2O-(1,3-phenylene)-C(═O)-Gly-Lys-Z2]p-Fab (Fab, V domains shown, may carry the labeling moiety; sites not stated; [DFO-C(═O)-CH2O-(1,3-phenylene)-C(═O)-Gly-Lys-Z2] labeling moiety bound via 2-iminothiolane to amino group(s) of the Fab, one or two per Fab by MS, sites and chain not stated; N-terminal Gln into pyroglutamic acid in a great majority (Example 2)) VH: QVQLVQSGAEVKKPGASVKVSCKASGYTFTNYGLSWVRQAPGQGLEWMGENHPGSGIIYHNEKFRGRVTLTADRSTSTAYMELSSLRSEDTAVYYCARSSGTRGFDYWGQGTLVTVSS VL: DVVMTQTPLSLSVTPGQPASISCRSSQSIVHSNGNTYLEWYLQKPGQSPQLLIYRVSNRFSGVPDRFSGSGSGTDFTLKISRVEAEDVGVYYCFQGSHGPWTFGQGTKLEIKR",0.3 nM
3,"Sample No. 3: [DOTA-CH2-(1,4-phenylene)-NH-C(═S)]p-Fab (Fab, V domains shown, may carry the labeling moiety; sites not stated; [DOTA-CH2-(1,4-phenylene)-NH-C(═S)] (from p-SCN-Bn-DOTA) bound to amino group(s) of the Fab, one to four per Fab by MS, sites and chain not stated; N-terminal Gln into pyroglutamic acid in a great majority (Example 2)) VH: QVQLVQSGAEVKKPGASVKVSCKASGYTFTNYGLSWVRQAPGQGLEWMGENHPGSGIIYHNEKFRGRVTLTADRSTSTAYMELSSLRSEDTAVYYCARSSGTRGFDYWGQGTLVTVSS VL: DVVMTQTPLSLSVTPGQPASISCRSSQSIVHSNGNTYLEWYLQKPGQSPQLLIYRVSNRFSGVPDRFSGSGSGTDFTLKISRVEAEDVGVYYCFQGSHGPWTFGQGTKLEIKR",0.49 nM
4,"Sample No. 5: [DOTA-Gly-Lys-Z2]p-Fab (Fab, V domains shown, may carry the labeling moiety; sites not stated; [DOTA-Gly-Lys-Z2] labeling moiety bound via 2-iminothiolane to amino group(s) of the Fab, one or two per Fab by MS, sites and chain not stated; N-terminal Gln into pyroglutamic acid in a great majority (Example 2)) VH: QVQLVQSGAEVKKPGASVKVSCKASGYTFTNYGLSWVRQAPGQGLEWMGENHPGSGIIYHNEKFRGRVTLTADRSTSTAYMELSSLRSEDTAVYYCARSSGTRGFDYWGQGTLVTVSS VL: DVVMTQTPLSLSVTPGQPASISCRSSQSIVHSNGNTYLEWYLQKPGQSPQLLIYRVSNRFSGVPDRFSGSGSGTDFTLKISRVEAEDVGVYYCFQGSHGPWTFGQGTKLEIKR",0.31 nM
5,"Sample No. 7: [DOTA-Met-Ile-NH-(CH2)2-Z1]p-Fab (Fab, V domains shown, may carry the labeling moiety; sites not stated; [DOTA-Met-Ile-NH-(CH2)2-Z1] labeling moiety bound via 2-iminothiolane to amino group(s) of the Fab, one to three per Fab by MS, sites and chain not stated; N-terminal Gln into pyroglutamic acid in a great majority (Example 2)) VH: QVQLVQSGAEVKKPGASVKVSCKASGYTFTNYGLSWVRQAPGQGLEWMGENHPGSGIIYHNEKFRGRVTLTADRSTSTAYMELSSLRSEDTAVYYCARSSGTRGFDYWGQGTLVTVSS VL: DVVMTQTPLSLSVTPGQPASISCRSSQSIVHSNGNTYLEWYLQKPGQSPQLLIYRVSNRFSGVPDRFSGSGSGTDFTLKISRVEAEDVGVYYCFQGSHGPWTFGQGTKLEIKR",0.31 nM
